Source: PMC9845307, “Arabidopsis LSH10 transcription factor and OTLD1 histone deubiquitinase interact and transcriptionally regulate the same target genes”

T1: GST-LSH10 (Arabidopsis, UniProt Q9S7R3 1-177)
T1 sequence: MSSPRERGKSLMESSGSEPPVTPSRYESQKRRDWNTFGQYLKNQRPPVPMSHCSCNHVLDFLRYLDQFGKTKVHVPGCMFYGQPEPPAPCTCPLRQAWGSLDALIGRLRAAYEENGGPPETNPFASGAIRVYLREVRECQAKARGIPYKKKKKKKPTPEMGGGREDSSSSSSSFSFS


Key:
[1] = target: T1, GST-LSH10; assay: EMSA; poly dI.dC; reduced by 300x unlabeled probe; 100 mM Tris, 500 mM KCl, 10 mM DTT, pH 7.5 (as printed binding buffer), 1 ug dI.dC, 10 ng probe, 1 ug protein, room temperature 20 min, 6% native PAGE; settings: protein: recombinant, tags: N-terminal GST (pGEX-5X-1), label: biotin (labeled probe)
[2] = target: OTLD1-RFP (Arabidopsis); assay: FRET or BRET; acceptor photobleaching FRET (AB-FRET): GFP donor, RFP acceptor, transiently co-expressed in N. benthamiana leaves; %AB-FRET = percent increase in GFP emission after RFP photobleaching, cell nucleus, n = 13 cells
Chain of OTLD1-RFP (Arabidopsis) (F4IFS7 whole entry): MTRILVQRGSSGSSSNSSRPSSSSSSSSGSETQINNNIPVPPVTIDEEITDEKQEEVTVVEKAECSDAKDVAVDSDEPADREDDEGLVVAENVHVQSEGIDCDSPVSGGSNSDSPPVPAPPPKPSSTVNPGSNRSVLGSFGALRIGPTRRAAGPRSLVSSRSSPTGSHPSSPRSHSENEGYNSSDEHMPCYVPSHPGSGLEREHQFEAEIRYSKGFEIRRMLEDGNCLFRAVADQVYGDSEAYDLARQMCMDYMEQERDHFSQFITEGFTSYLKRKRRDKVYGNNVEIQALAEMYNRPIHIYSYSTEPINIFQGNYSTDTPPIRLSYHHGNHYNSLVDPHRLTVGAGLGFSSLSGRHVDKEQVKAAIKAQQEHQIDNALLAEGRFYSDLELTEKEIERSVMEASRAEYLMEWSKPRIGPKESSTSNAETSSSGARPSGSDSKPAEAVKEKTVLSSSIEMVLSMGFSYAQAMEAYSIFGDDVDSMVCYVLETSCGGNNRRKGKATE

Binder	binding result [1]	also measured
probe e (WUS) (dsDNA) DNA 1: ATTTACCGTTAACTTTGTGAACAAAAGTCGAATCAAACACAC DNA 2: GTGTGTTTGATTCGACTTTTGTTCACAAAGTTAACGGTAAAT	binds	
probe d (WUS) (dsDNA) DNA 1: TATATATATATAATCTTCTCTCTCACACAAAACCTAAAA DNA 2: TTTTAGGTTTTGTGTGAGAGAGAAGATTATATATATATA	binds	
probe b (OSR2) (dsDNA) DNA 1: CTGTAACGTCTTTCTCTTCACACACATAAAAAAG DNA 2: CTTTTTTATGTGTGTGAGAGAGAAAGACGTTACAG		binding result ([1]; internal mismatch/bulge as printed): binds
LSH10-GFP (natural protein) MSSPRERGKSLMESSGSEPPVTPSRYESQKRRDWNTFGQYLKNQRPPVPMSHCSCNHVLDFLRYLDQFGKTKVHVPGCMFYGQPEPPAPCTCPLRQAWGSLDALIGRLRAAYEENGGPPETNPFASGAIRVYLREVRECQAKARGIPYKKKKKKKPTPEMGGGREDSSSSSSSFSFS		%AB-FRET (increase in the donor fluorescence) [2]: 13%
probe h (ARL) (dsDNA) DNA 1: TCAGAGAAAGTGTCTAGGGGAGAAGAACCACTGTGATTG DNA 2: CAATCACAGTGGTTCTTCTCCCCTAGACACTTTCTCTGA	binds	
probe f (ABI5) (dsDNA) DNA 1: GCTTTTAAACTATGTGAAGGAGGAGAACCTCCATAACAA DNA 2: TTGTTATGGAGGTTCTCCTCCTTCACATAGTTTAAAAGC	binds	
probe g (ABI5) (dsDNA) DNA 1: ACAAGAAGCGGATTCTCTCAGTTTTCCGGCGGCGGAGGAACA DNA 2: TGTTCCTCCGCCGCCGGAAAACTGAGAGAATCCGCTTCTTGT	binds	
probe c (WUS) (dsDNA) DNA 1: TTTTAGAATTTTTGTTTTGTTTTCTGTGTGTATG DNA 2: CATACACACAGAAAACAAAACAAAAATTCTAAAA	binds	
probe a (OSR2) (dsDNA) DNA 1: TAATATAAATTGCGTTTTGTTTTCCAGATATCAA DNA 2: TTGATATCTGGAAAACAAAACGCAATTTATATTA	binds	
